The target in this experiment is SHIVAD8EO envelope on pseudotyped virus (SHIV (HIV-1 AD8-derived env)). The experiment is described as follows: cell-based or functional assay.

3BNC117 (antibody) returned an IC50, TZM-bl neutralization of SHIVAD8EO of 0.14 µg/mL.

(Values after patent US12338277.)
